Measured values from the RNAGym collection of RNA variant scans (doi:10.1073/pnas.2313332121).

B1: TPR t1 (parent)
chain: GACCAAUCUGCCCUCAGAGCUCGAGAACAUCUUCGGAUGCAGAGGAGGCAGGCUUCGGUGGCGCGAUAGCGCCAACGUCCUCAACCUCCAAUGCAUCCCACCACAUGAUGAUGCCUGAAGAGCCUUGGUUUUUUG

Variants of: B1
Assay: polymerase ribozyme fitness, log enrichment relative to wild type (log ratio); higher = more active; in vitro selection for triplet polymerase activity
Summary of the method: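 In triplicate, a single round of in vitro selection was run on each mutant library, PCR-built and transcribed, covering one subunit of a heterodimeric triplet polymerase ribozyme. Frozen incubation at −7 °C followed annealing with a biotinylated primer, partner subunit and triplets, and extended constructs were then gel-excised, streptavidin-captured and taken through RT-PCR. Fitness is the logarithm of genotype enrichment over wild-type enrichment, from inverse-variance-weighted replicate averages of Illumina-sequenced inputs and outputs. […] only genotypes with ≥10 input reads and ≥1 read per output were kept.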

| Variant | polymerase ribozyme fitness (log ratio) |
| --- | --- |
| G39A A43U G63U C86G | -4.39 |
| A37U G113U | -3.11 |
| A37U G48A | -0.338 |
| G39A C40G G69U C101A | -2.28 |
| U38G A84U | -1.9 |
| U38A G45U G52A U131G | -3.68 |
| A37U G117A | -1.4 |
| U38C G117U G120A | -2.23 |
| A37U U59C | -0.107 |
| A37U U59A | -0.609 |
| G39A A43G G127U | -2.87 |
| U38G C62G C86A C124A | -2.75 |
| G39A A46U U87A U106A | 0.825 |
| G39C A91C | -1.16 |
| G39C A91U | -2.41 |
| U38C C40U C56G U78A G113A | -3.17 |
| U38A C70U | -1.15 |
| U38A A90U | -2.22 |
| A37U G42A | -2.01 |
| U38A C62G | -3.68 |
| G39A A43U C86G | -1.99 |
| G39C C70U U112G | -2.08 |
| U38A G58C C70U C115A | -1.72 |
| G39C C79A | -3.06 |

| Variant | polymerase ribozyme fitness (log ratio) |
| --- | --- |
| A37U G122A | -1.18 |
| G39A A43G C73G U129G | -5.71 |
| U38G G127U G135U | -2.73 |
| G39C C53G G107C A121U | -4.92 |
| U38A C80U | -1.43 |
| U38A C49G G60U G61A U116C U125A | -4.75 |
| G39A C56A G71C C124A | -5.6 |
| G39C C97U G120C | 0.357 |
| U38A G39U C82G U130A | -3.44 |
| A37U U38A G63A | -3.7 |
| G39A C89G A90C | -2.4 |
| G39A A41G A83G C94A | -4.25 |
| A37U C62A U92C | -2.86 |
| A37U G47A U116G | -3.09 |
| A37U C56G C72A | -2.62 |
| U38C G39U | -1.44 |
| G39A G61U A100C C123A | -1.14 |
| G39A G42U C49A G52A | -4.68 |
| A37U G42C G57C C70U U129A | -5 |
| A37U C49G | -0.828 |
| A37U U112G | -1.14 |
| G39A A43U C88G C123A | -4.11 |
| A37U G39U | -1.39 |
| G39A A118U | 0.354 |

| Variant | polymerase ribozyme fitness (log ratio) |
| --- | --- |
| U38G U133A | -0.846 |
| A37U U133G | -1.2 |
| A37U C82A G93U | -1.72 |
| U38G C49U G61U | -1.52 |
| U38A G71A U129A | -3.95 |
| U38G C49U | -2.12 |
| A37U G52C G71A C115U U132C | -3.24 |
| U38A | -0.984 |
| U38G | -0.73 |
| U38C | -0.501 |
| G39A C70G G120C G122U | -3.09 |
| U38C C56U C98U G110U | -5.51 |
| U38A G61C | -2.48 |
| U38C C123A | -0.222 |
| U38C G63A G77C U131G | -2.97 |
| G39A G42U C80U C124U | -1.59 |
| G39A C73A | -0.374 |
| G39C A90G | 0.876 |
| U38C G63U G77C U131G | -3.41 |
| G39A G51U U78A | -4.54 |
| U38G G57U C62A A91U C97A G117A G120C | -7.34 |
| U38G G42U G120C U126G G128U | -3.39 |
| U38C U59G A95C | -0.718 |
| A37U G52U C62A | -2.78 |

| Variant | polymerase ribozyme fitness (log ratio) |
| --- | --- |
| A37U C101A C115U G127C | -4.26 |
| U38A A50U C123G U133A | -0.425 |
| A37U U132C | -1.09 |
| G39A A43U C114U | -2.78 |
| G39A C40U C72G | -2.72 |
| G39A G57U U116A U125A | -4.53 |
| U38A A111G | -1.31 |
| U38G G69C C86U C115A | -3.28 |
| A37U G39U G69A | -4.43 |
| A37U G113U G120A | -2.83 |
| G39C C76U U126G | -2.72 |
| A37U U81G | -3.43 |
| A37U C73U G120C | 1.31 |
| G39A G69A | -3.04 |
| A37U U59A G61C G93U A95G U130G | -5.82 |
| A37U C64U U132C | -0.703 |
| U38A U59G A83C | -1.75 |
| G39C C62U G63A | -3.77 |
| G39A C86G | -1.11 |
| U38G C62U C86U C115A | -2.04 |
| A37U C72A U106A G135U | -0.59 |
| U38G A46U G110U | -4.8 |
| A37U C85U | -1.29 |
| U38C A46G | -3.03 |

| Variant | polymerase ribozyme fitness (log ratio) |
| --- | --- |
| U38G C53G | -1.52 |
| A37U C53G C89U C102U U131A | -2.62 |
| G39A A43U C72G | -1.83 |
| U38G C72G | -0.641 |
| U38A G57A G63A | -4.08 |
| U38A C40U C70U C101U C123G | -1.32 |
| G39A G61A C85U | -0.757 |
| A37U C56A | -1.32 |
| A37U C56U | -0.686 |
| A37U C56U C72U | -0.343 |
| U38G C56U C79G U81G U96C C104A G110C | -5.98 |
| A37U C89U A108G | -3.18 |
| U38G A111C | -0.398 |
| G39A G63U G69U | -1.34 |
| U38G A50G U81C G113A | -1.89 |
| A37U C53G G63C U116A | -2.98 |
| G39A U116A U129C | -3.92 |
| U38G C79U C97U | -5.59 |
| G39A G113U | -2.43 |
| A37U G127A | -2.32 |
| A37U G117C G122U | -5.5 |
| A37U G77A A111C | 0.0508 |
| U38A G45A U129C | -2.96 |
| A37U U130G | -1.28 |

| Variant | polymerase ribozyme fitness (log ratio) |
| --- | --- |
| A37U G47U G60A G110A | -3.74 |
| U38G G69U C98A | -4.75 |
| G39A A50U A118U | -0.352 |
| U38G C80U C86U | -1.86 |
| G39A C70U | -0.985 |
| U38A G57A U116A G120A | -4.1 |
| A37U U38C C53U | -1.6 |
| G39A A46U C64U | -2.95 |
| U38A C124A | 1.2 |
| A37U G44A C101A A111G | -1.68 |
| G39A A74G | -0.641 |
| A37U C101G G128C | -3.4 |
| G39A A43U C70U C82U G113C U132C | -3.27 |
| U38G G47C C62U C85A | -5.9 |
| A37U C49A U55C U112A | 0.525 |
| A37U G57C G63A | -1.29 |
| A37U C49G G77U G120C | 0.00604 |
| A37U G45C A46C U78A | -2.59 |
| G39C A111C G113A | -3.44 |
| U38G A83C | -1.25 |
| G39A C62A C72G | -4.2 |
| U38C C101U | -1.08 |
| G39A C49G G61A C89U C102G | -7.76 |
| G39A A41U G69U | -0.975 |

| Variant | polymerase ribozyme fitness (log ratio) |
| --- | --- |
| A37U C82A G120C | 0.889 |
| U38C A46C C53A C76G C80U C94U | -2.96 |
| A37U G48U G57U G60U U129C | -1.31 |
| A37U G69U A95C C101G G127A | -3.13 |
| U38G U54C C56U G61U A111U | -5.38 |
| U38G G51C | -6.44 |
| A37U G44A G122A U130C U131A G135U | -1.23 |
| G39A C82A | -0.962 |
| U38A A43C A83U C85A | -5.42 |
| A37U C79A U87G U96A A118U | -0.000648 |
| U38A A46U | -2.42 |
| U38A G93U C123U | -3.41 |
| A37U G71A A84C C85U U96A | -0.538 |
| U38G C56G G57C G77U | -1.18 |
| A37U G69A A83U U96A C124U U131A | -1.63 |
| G39A G45A C53A C102U A111C | -3.94 |
| U38A G63A G93U | -4.96 |
| A37U G48A A105U A111U | -6.33 |
| G39A G45A | -1.29 |
| G39A G47U G48A C70U C101A | -5.46 |
| A37U G47C C56G C104A | -3.66 |
| U38A G42U U59A C88G A95U C114A | -4.56 |
| G39A G71U A83U | -1.37 |
